B1: IL-12: recombinant IL-12 in mouse studies; recombinant human IL-12p70 (PeproTech) in the human ex vivo studies (protein, UniProt P29459 23-219; P29460 23-328, looked up)
Interleukin-12 subunit alpha: RNLPVATPDPGMFPCLHHSQNLLRAVSNMLQKARQTLEFYPCTSEEIDHEDITKDKTSTVEACLPLELTKNESCLNSRETSFITNGSCLASRKTSFMMALCLSSIYEDLKMYQVEFKTMNAKLLMDPKRQIFLDQNMLAVIDELMQALNFNSETVPQKSSLEEPDFYKTKIKLCILLHAFRIRAVTIDRVMSYLNAS
Interleukin-12 subunit beta: IWELKKDVYVVELDWYPDAPGEMVVLTCDTPEEDGITWTLDQSSEVLGSGKTLTIQVKEFGDAGQYTCHKGGEVLSHSLLLLHKKEDGIWSTDILKDQKEPKNKTFLRCEAKNYSGRFTCWWLTTISTDLTFSVKSSRGSSDPQGVTCGAATLSAERVRGDNKEYEYSVECQEDSACPAAEESLPIEVMVDAVHKLKYENYTSSFFIRDIIKPDPPKNLQLKPLKNSRQVEVSWEYPDTWSTPHSYFSLTFCVQVQGKSKREKKDRVFTDKTSATVICRKNASISVRAQDRYYSSSWSEWASVPCS

Tests used:
MC38 tumors = assay: MC38 tumor model: tumor growth, survival, re-challenge; format: in vivo, mice; conditions: for antitumor response, MC38 tumors: MC38 tumor-bearing mice, treatment as labelled
Experimental: MC38 tumor cell lines were obtained from Dr. Mark Smyth (QIMR Berghofer). MC38 cells were implanted at 2×10^6 cells in the flank. B16F10 cell lines were obtained from ATCC. B16F10 cells were implanted intradermally at 0.5×10^6 cells in the flank. All tumor models were allowed to grow for one week prior to therapy. Tumor sizes were approximately 75 mm^3 before treatment initiation, and starting tumor volumes were normalized between treatment groups. Percent tumor changes were calculated as percent difference of mouse tumor volume from pre-treatment baseline, measured using digital caliper. Lung seeding B16F10 models received 0.5×10^6 cells intravenously and were allowed to grow for 10 days from the point of implantation. Mouse tumors were allowed to grow to a maximum of 2 cm in diameter, or until tumor ulceration occurred. These were considered as endpoints for survival experiments in accordance with MGH IACUC regulations.
(§1) Tumor bearing mice, with a tumor size of approximately 75 mm^3, were treated with 200 μg of aPD-1 and/or 100 μg of aCD40 intraperitoneally for immunotherapy studies. For combination treatment studies, both aPD-1 and aCD40 were administered at the same time. For IL-12 neutralization studies, mice were dosed with 500 μg of anti-IL-12p40 Clone 17.8 daily for 5-7 days following aPD-1 therapy. Neutralization of IFN-γ in vivo was performed by administering 1 mg of anti-IFN-γ Clone XMG1.2 initially with 500 μg of anti-IFN-γ dosed daily intraperitoneally for days 1-3. The cIAP1/2 inhibitor AZD5582 (Hennessy et al., 2013) was purchased from Selleck Chem and was resuspended in sterile saline. Mice received a single dose of AZD5582 at 10 mg/kg, intraperitoneally. […]
Long-term surviving mice from aPD-1 and aCD40 combination therapy were re-challenged with either MC38 or B16F10 tumors at 50 days following primary tumor rejection. […] Naive C57BL/6J mice were implanted alongside re-challenge mice, and these mice were monitored for tumor growth for 2 weeks following implantation. […]

IL-12p40-eYFP^+ cells = assay: Intravital imaging of MC38 tumors in IL-12p40-eYFP reporter mice; format: in vivo; conditions: after 48 hours compared to baseline
Experimental: as §1, with “saline.” for “saline. Mice received a single dose of AZD5582 at 10 mg/kg, intraperitoneally.”
(§2) Interferon gamma reporter (IFN-γ-eYFP) or IL-12p40 reporter (IL12p40-eYFP) mice were anesthetized and dorsal skin-fold window chambers were installed as previously described (Thurber et al., 2013) and mice were treated with analgesic (Buprenorphine 0.1 mg/kg/day) for 3 days following chamber implantation. […] Anesthetized mice were kept on a heating pad kept at 37° C., vital signs monitored and mice were imaged using an Olympus FluoView FV1000MPE confocal imaging system (Olympus America). […] Sequential scanning (5 μm slices) with 405, 473, 559, and 635 nm lasers was performed using voltage and power settings that were optimized using fluorescence minus-one control mice prior to time lapse acquisition. […]

[1] = tested on: Flt3L-derived bone marrow DCs; assay: Flt3L-derived bone marrow DCs cultured in vitro with AZD5582, IL-12p40 transcripts; format: cell-based; conditions: 24 hours, various concentrations of AZD5582
Experimental: FIGS. 13A-C. IL-12 Expressing Cells Express More CD40 and […] can Induce IL-12 Production In vitro. (A) Flow cytometry of MC38 tumors from IL-12p40-eYFP reporter mice, stained for CD40 expression; n=7 per group. (B) Flow cytometry of CD40 expression from the following tumor immune cell populations: Non-Antigen Presenting Cells (non-APCs, defined as F4/80−CD11c−MHCII−), macrophages (F4/80+) and IL-12+ DCs (CD11chi MHCIIhi IL-12+); n=4 per group. (C) Flt3L-derived bone marrow DCs were cultured in vitro with various concentrations of AZD5582 for 24 hours, and were harvested for RNA. Shown is fold change expression of IL-12p40 transcripts compared to untreated conditions (n=3 per condition). Results are representative of at least 2 independent experiments. ****p<0.0001; Student's two tailed t-test.

[2] = tested on: Tumor-infiltrating CD8^+ T cells isolated from MC38 tumors; assay: In vitro restimulation of tumor-infiltrating CD8+ T cells isolated from MC38 tumors (intracellular IFN-γ, flow cytometry); format: cell-based, mice; conditions: aCD3/CD28 stimulation with IL-12 (20 ng/ml), 72 hours
Experimental: Tumor tissue or tumor draining lymph nodes were isolated from mice and minced using surgical scissors. Tissues were then digested using 0.2 mg/ml Collagenase II (Worthington) in RPMI 1640 media (CellGro) at 37° C. for 30 minutes and then strained through a 40 μm filter (BD Falcon). Cell suspensions were incubated with Fc Block TruStain FcX Clone 93 (Biolegend) in PBS containing 0.5% BSA and 2 mM EDTA before staining with fluorochrome labeled antibodies. Antibodies against CD11b (M1/70, Biolegend), CD8a (53-6.7, Biolegend), CD45 (30-F11, BD), F4/80 (BM8, Biolegend), CD11c (N418, Biolegend), MHC II I-A/I-E (M5/114.15.2, Biolegend), CD103 (2E7, Biolegend), IFN-γ (XMG1.2, Biolegend) were used for marker staining. 7AAD viability staining was used to exclude dead cells from analysis. Samples were run on a LSR II flow cytometer and analyzed using FlowJo software (Treestar). For intracellular cytokine staining, samples were incubated for 5 hours with GolgiPlug (BD) at 1 μl per ml of culture media. Cells were then surface stained and then fixed and permeabilized using the BD Cytofix/Cytoperm kit (BD) according to manufacturer's protocol and stained for intracellular cytokines.
MC38 tumors were digested into single cell suspensions similar to tissue processing for flow cytometry analysis and were passed through a 40 μm filter. […]

B16F10 melanoma = B16F10 melanoma tumor model: tumor growth, survival, re-challenge; format: in vivo; conditions: B16F10 melanoma-bearing mice, treatment as labelled
Experimental: Tumor bearing mice, with a tumor size of approximately 75 mm^3, were treated with 200 μg of aPD-1 and/or 100 μg of aCD40 intraperitoneally for immunotherapy studies. For combination treatment studies, both aPD-1 and aCD40 were administered at the same time. […] Mice received a single dose of AZD5582 at 10 mg/kg, intraperitoneally. […]

IFN-γ-eYFP^+ cells = assay: Intravital imaging of MC38 tumors in IFN-γ-eYFP reporter mice; format: in vivo; conditions: recombinant IL-12, by day four, in the absence of aPD-1
Experimental: as §1, with “saline.” for “saline. Mice received a single dose of AZD5582 at 10 mg/kg, intraperitoneally.”
as §2

[3] = tested on: human tumor-infiltrating CD8^+ T cells; assay: IL-12 ex vivo studies: IFN-γ ELISA of stimulated patient tumor-infiltrating CD8+ T cells; format: cell-based; conditions: aCD3 stimulation with IL-12, six cancer patients, 3 days
Text: IL-12 ex vivo studies: Fresh tumor resections from six cancer patients undergoing surgical treatment at University Hospital Basel, Switzerland were used to assess whether IL-12 can directly activate human tumor-infiltrating CD8^+ T cells upon isolation of these cells ex vivo. Tumor tissue (two lung adenocarcinomas, three squamous cell carcinomas and one synovial sarcoma) was collected from six different patients undergoing primary surgical treatment between November 2015 and November 2017. The study was approved by the local Ethical Review Board (Ethikkommission Nordwestschweiz) and all patients consented in writing to the analysis of their tumor samples. The solid tumor lesions were mechanically dissociated and enzymatically digested using accutase (PAA), collagenase IV (Worthington), hyaluronidase (Sigma) and DNAse type IV (Sigma), directly after excision. Single cell suspensions were prepared and cryopreserved in liquid nitrogen in 90% fetal calf serum (FCS, Brunschwig Pan Biotech) and 10% dimethylsulfoxide (DMSO, Sigma) until further usage. […] Sorting purity was measured by reanalyzing the sorted cells and always reached >95% purity. […] IFN-γ secreted by these cultures was then measured by enzyme-linked immunosorbent assay according to the instructions by the manufacturer (BD, OptEIA human IFN-γ ELISA set). […]

Molecule | effect of FTY720 on the antitumor response to aPD-1 (MC38 tumors; MC38, FTY720 1.25 mg/kg i.p. daily with aPD-1) | antitumor response, MC38 tumors (MC38 tumors) | fold increase of tumor-infiltrating IL-12^+ cells (IL-12p40-eYFP^+ cells) | IL-12 production in vitro [1] | IFN-γ production by stimulated CD8^+ T cells [2] | antitumor response, B16F10 tumors (B16F10 melanoma) | fold increase of IFN-γ-eYFP^+ cells (IFN-γ-eYFP^+ cells) | IFN-γ production by CD8^+ T cells [3]
CCCCCCCCc1ccc(CCC(N)(CO)CO)cc1 [FTY720] | did not affect the antitumor response to aPD-1 treatment | – | – | – | – | – | – | –
CN[C@@H](C)C(=O)N[C@H](C(=O)N1CCC[C@H]1C(=O)N[C@H]1c2ccccc2C[C@H]1OCC#CC#CCO[C@@H]1Cc2ccccc2[C@@H]1NC(=O)[C@@H]1CCCN1C(=O)[C@@H](NC(=O)[C@H](C)NC)C1CCCCC1)C1CCCCC1 [AZD5582] | – | provided antitumor effects in vivo | 4.0±1.3 fold | potently enhanced IL-12 production in vitro | – | – | – | –
B1 | – | robust antitumor responses | – | – | substantially increased IFN-γ production | substantial antitumor effect | 5.9±0.7 fold | increased IFN-γ production by CD8^+ T cells in five out of six patients
